Source: patent US20030114379A1

Biological target: CCR1 (human) (UniProt P32246)
Assay: cell-based or functional assay

Sequence of CCR1 (human) (P32246 whole entry): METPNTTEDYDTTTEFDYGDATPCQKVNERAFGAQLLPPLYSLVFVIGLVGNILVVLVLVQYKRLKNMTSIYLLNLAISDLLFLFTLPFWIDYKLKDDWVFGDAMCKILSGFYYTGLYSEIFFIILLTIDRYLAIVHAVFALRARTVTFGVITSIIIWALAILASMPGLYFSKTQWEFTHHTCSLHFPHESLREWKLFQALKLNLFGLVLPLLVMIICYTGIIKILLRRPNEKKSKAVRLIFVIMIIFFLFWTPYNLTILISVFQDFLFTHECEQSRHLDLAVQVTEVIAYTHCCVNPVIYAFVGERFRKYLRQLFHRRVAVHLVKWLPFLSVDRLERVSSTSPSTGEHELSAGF

Substance: MPIF-1 wild type (mature MPIF-1 secreted from a baculovirus expression system) (from UniProt P55773 22-120) (ligand)
- Ca2+ mobilization (ng/mL): minimum concentration required to mobilize calcium in human monocytes and/or THP-1 cells; MPIF-1/HG00300-B5: 1000 ng/mL
